{
  "source": "patent US20180298101A1",
  "key": {"[1]": {"biological_target": "JAK1 activation loop phosphopeptide (Tyr1034 phosphorylated) (human)", "assay": "ITC"}, "[2]": {"biological_target": "JAK1-Y1034 phosphopeptide with an alanine substitution at the +3 position (human)", "assay": "ITC, alanine-substituted phosphopeptide"}, "[3]": {"biological_target": "JAK1 kinase domain (JH1) (human) (UniProt P23458)", "sequence (P23458 854-1154 limits assumed)": "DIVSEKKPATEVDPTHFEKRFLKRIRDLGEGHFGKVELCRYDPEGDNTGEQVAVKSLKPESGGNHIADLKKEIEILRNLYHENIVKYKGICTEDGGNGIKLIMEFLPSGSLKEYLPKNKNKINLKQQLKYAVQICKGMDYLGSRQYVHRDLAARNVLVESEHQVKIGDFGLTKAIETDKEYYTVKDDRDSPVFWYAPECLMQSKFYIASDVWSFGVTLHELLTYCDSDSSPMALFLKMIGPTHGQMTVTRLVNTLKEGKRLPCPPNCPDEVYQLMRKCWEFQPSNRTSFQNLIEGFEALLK", "assay": "cell-based or functional assay"}, "TYK2 kinase domain (JH1)": {"biological_target": "TYK2 kinase domain (JH1) (UniProt P29597)", "sequence (P29597 888-1187 limits assumed)": "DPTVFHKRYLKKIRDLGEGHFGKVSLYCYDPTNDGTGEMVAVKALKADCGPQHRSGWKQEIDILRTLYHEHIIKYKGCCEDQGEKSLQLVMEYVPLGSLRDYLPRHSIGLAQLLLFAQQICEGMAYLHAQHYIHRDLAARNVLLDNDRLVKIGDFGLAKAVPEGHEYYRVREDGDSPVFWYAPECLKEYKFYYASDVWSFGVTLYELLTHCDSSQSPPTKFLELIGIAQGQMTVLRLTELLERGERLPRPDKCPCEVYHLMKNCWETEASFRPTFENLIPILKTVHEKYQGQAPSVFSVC", "assay": "cell-based or functional assay"}, "JAK3 kinase domain (JH1)": {"biological_target": "JAK3 kinase domain (JH1) (UniProt P52333)", "sequence (P52333 811-1124 limits assumed)": "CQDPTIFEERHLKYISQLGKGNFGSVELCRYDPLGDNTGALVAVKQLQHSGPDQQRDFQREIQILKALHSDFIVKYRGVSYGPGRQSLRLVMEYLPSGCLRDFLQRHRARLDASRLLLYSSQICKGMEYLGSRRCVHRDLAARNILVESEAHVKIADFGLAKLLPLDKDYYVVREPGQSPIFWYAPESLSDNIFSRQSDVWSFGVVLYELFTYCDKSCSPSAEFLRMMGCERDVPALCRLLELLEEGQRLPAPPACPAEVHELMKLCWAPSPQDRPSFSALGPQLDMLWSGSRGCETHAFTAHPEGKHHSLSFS", "assay": "cell-based or functional assay"}, "JAK2 kinase domain (JH1)": {"biological_target": "JAK2 kinase domain (JH1) (UniProt O60674)", "sequence (O60674 835-1132 limits assumed)": "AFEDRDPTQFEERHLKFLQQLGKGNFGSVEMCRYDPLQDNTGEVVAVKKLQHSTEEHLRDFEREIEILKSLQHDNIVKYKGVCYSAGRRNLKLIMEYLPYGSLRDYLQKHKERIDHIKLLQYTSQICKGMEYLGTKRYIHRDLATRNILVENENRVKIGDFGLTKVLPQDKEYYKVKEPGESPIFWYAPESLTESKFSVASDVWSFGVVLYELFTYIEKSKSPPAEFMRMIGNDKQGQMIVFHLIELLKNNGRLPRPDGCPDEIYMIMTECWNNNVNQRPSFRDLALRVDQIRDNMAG", "assay": "cell-based or functional assay"}},
  "note": "pKd: −log10 of the molar value.",
  "data": [
    {"substance": "human CIS lacking the N-terminal 34 residues (ΔN34) in trimeric complex with elongin B and elongin C (from UniProt Q9NSE2 35-258; Q15370 1-118; Q15369 17-112)", "values": [
      {"measurement": "pKd", "setting": "[1]", "result": "5.00 to 5.66"}
    ]},
    {"substance": "human CIS lacking both the N-terminal region (residues 1-66) and the PEST motif (ΔNT/ΔPEST) in trimeric complex with elongin B and elongin C (from UniProt Q9NSE2 67-258; Q15370 1-118; Q15369 17-112)", "values": [
      {"measurement": "fold reduction of binding against the wild-type JAK1-Y1034 phosphopeptide", "setting": "[2]", "result": 4, "unit": "fold"},
      {"measurement": "IC50 of inhibition of the JAK1 kinase domain (JH1), in vitro kinase reaction", "setting": "[3]", "result": 0.6, "unit": "µM"}
    ]},
    {"substance": "hCIS-SH2-BC complex (ternary complex of human GST-CIS-SH2 construct, residues 66-258 with PEST region 174-202 deleted, with Elongin B and Elongin C) (from UniProt Q9NSE2 66-258; Q15370 1-118; P83940 17-112)", "values": [
      {"measurement": "fold difference of kinase inhibition, JAK1 against TYK2 (in vitro kinase assay)", "setting": "TYK2 kinase domain (JH1)", "result": 20, "unit": "fold"},
      {"measurement": "fold difference of kinase inhibition, JAK1 against JAK3 (in vitro kinase assay)", "setting": "JAK3 kinase domain (JH1)", "result": 20, "unit": "fold"},
      {"measurement": "fold difference of kinase inhibition, JAK1 against JAK2 (in vitro kinase assay)", "setting": "JAK2 kinase domain (JH1)", "result": 20, "unit": "fold"},
      {"measurement": "IC50 of inhibition of JAK1 phosphorylation of a substrate peptide (in vitro kinase assay)", "setting": "[3]", "result": 0.12, "unit": "µM"},
      {"measurement": "efficiency of JAK1 kinase inhibition against SOCS1 as reference", "setting": "[3]", "result": 100, "unit": "fold"}
    ]}
  ]
}
